What is called Kd is the equilibrium constant for the complex coming apart. In general, koff refers to the first-order rate constant of dissociation. By kon is commonly meant the rate constant with which the complex forms.

Substitutions are numbered along the chain they refer to.

The record followed here is US20180318451A1 (published 2018).

Test [1] has as its target T1, rhPSMA, extracellular part of human PSMA (residues 44-750) with its native N-terminus (human, UniProt Q04609 44-750, N-glycosylated (made in Schneider S2 insect cells)).
T1 construct: range 44-750; No tag; also called wild-type rhPSMA; rhGCPII
As to the kind of experiment: ELISA, rhPSMA coated on MaxiSorp plate. An excerpt: Enriched lipocalin variants from phage display were subjected to ELISA screening after subcloning of the central BstXI gene cassette on pNGAL98, which also encodes the N-terminal OmpA signal sequence directing the expressed protein into the bacterial periplasm and a C-terminal Strep-tag II for purification (Schmidt, T. G. & Skerra, A. [2007] Nat. Protoc. 2:1528-1535). After transformation of E. coli TG1-F- (Kim, H. J. et al. [2009] J. Am. Chem. Soc. 131:3565-3576) with the ligation mixture, randomly picked colonies were inoculated in a 96-well plate filled with 100 μL of Terrific broth (TB) media supplemented with 100 μg/mL ampicillin per well. Anticalin expression was induced at an optical density of OD₅₅₀=0.3-0.5 by addition of 20 μL TB/Amp containing 1.2 μg/mL anhydrotetracycline (aTc; ACROS Organics, 233131000) overnight at 20° C. […] After 1 h incubation at room temperature, plates were washed three times with PBS/T and bound lipocalin variants were detected by means of their C-terminal Strep-tag II using StrepTactin conjugated to alkaline phosphatase (IBA, 2-1503-001), diluted 1:5,000 in PBS, for 1 h. Signals were developed by hydrolysis of 0.5 mg/mL p-nitrophenyl phosphate in 0.1 M NaCl, 5 mM MgCl₂, 0.1 M Tris/HCl, pH 8.8, and monitored via absorbance measurement at 405 nm with an Infinite 200 PRO microplate reader (Tecan). […]
Background: ELISA stands for enzyme-linked immunosorbent assay.

The target of a further test is T2, ovalbumin (UniProt P01012 2-386).
T2 sequence (looked up): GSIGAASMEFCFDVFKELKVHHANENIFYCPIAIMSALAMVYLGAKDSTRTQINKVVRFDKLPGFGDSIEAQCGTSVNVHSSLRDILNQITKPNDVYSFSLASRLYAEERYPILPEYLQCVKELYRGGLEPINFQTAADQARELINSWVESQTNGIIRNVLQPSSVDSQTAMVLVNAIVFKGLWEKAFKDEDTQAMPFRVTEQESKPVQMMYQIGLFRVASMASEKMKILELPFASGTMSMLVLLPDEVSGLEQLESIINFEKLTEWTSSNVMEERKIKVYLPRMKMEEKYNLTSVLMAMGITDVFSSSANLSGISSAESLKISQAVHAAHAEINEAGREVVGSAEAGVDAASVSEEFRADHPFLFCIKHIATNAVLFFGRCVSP
As to the kind of experiment: ELISA, ovalbumin-coated wells. An excerpt: Enriched lipocalin variants from phage display were subjected to ELISA screening after subcloning of the central BstXI gene cassette on pNGAL98, which also encodes the N-terminal OmpA signal sequence directing the expressed protein into the bacterial periplasm and a C-terminal Strep-tag II for purification (Schmidt, T. G. & Skerra, A. [2007] Nat. Protoc. 2:1528-1535). After transformation of E. coli TG1-F- (Kim, H. J. et al. [2009] J. Am. Chem. Soc. 131:3565-3576) with the ligation mixture, randomly picked colonies were inoculated in a 96-well plate filled with 100 μL of Terrific broth (TB) media supplemented with 100 μg/mL ampicillin per well. Anticalin expression was induced at an optical density of OD₅₅₀=0.3-0.5 by addition of 20 μL TB/Amp containing 1.2 μg/mL anhydrotetracycline (aTc; ACROS Organics, 233131000) overnight at 20° C. The periplasmic extract was prepared as previously described²¹ and applied to 96-well MaxiSorp plates (Nunc, 442404) coated with rhPSMA (5 μg/mL in TBS) and blocked with BSA. Ovalbumin (10 μg/mL in TBS) served as non-related control protein in parallel. After 1 h incubation at room temperature, plates were washed three times with PBS/T and bound lipocalin variants were detected by means of their C-terminal Strep-tag II using StrepTactin conjugated to alkaline phosphatase (IBA, 2-1503-001), diluted 1:5,000 in PBS, for 1 h. Signals were developed by hydrolysis of 0.5 mg/mL p-nitrophenyl phosphate in 0.1 M NaCl, 5 mM MgCl₂, 0.1 M Tris/HCl, pH 8.8, and monitored via absorbance measurement at 405 nm with an Infinite 200 PRO microplate reader (Tecan).
Individual colonies were used for micro-scale expression in a 96-well plate and crude E. coli lysates from these cultures were screened in an ELISA for Anticalins having PSMA-binding activity. To this end, MaxiSorp plates coated with glycosylated rhPSMA were used as a target, whereas ovalbumin-coated wells were used as negative control to assess non-specific binding. Bound Anticalins were detected via the C-terminal Strep-tag II.

Test [2] addresses T1, rhPSMA, extracellular part of human …. As to the kind of experiment: SPR (BIAcore 2000), rhPSMA on chip. Here is the method:
(§1) Surface plasmon resonance (SPR) spectroscopy was performed on a BIAcore 2000 instrument (BIAcore) following published procedures (Gebauer, M. et al. [2013] J. Mol. Biol. 425:780-802; De Crescenzo, G. et al. [2008] J. Mol. Recognit. 21:256-266). rhPSMA (1 nM in 10 mM Na-acetate pH 5.0) was immobilized on a CM5 sensor chip (BIAcore) using an amine coupling kit (GE Healthcare, BR100050), resulting in around 500 resonance units (ΔRU). The purified Anticalins were diluted in HEPES buffered saline (HBS; 10 mM HEPES/NaOH, 150 mM NaCl, pH 7.4) with 0.005% v/v Tween 20 to concentrations from 64-2 nM. The instrument was operated using the same running buffer at a flow rate of 25 μL/min. […] Regeneration of the sensor chip was achieved by up to four injections of 10 μL glycine/HCl, pH 2.0. The sensorgrams were corrected by double subtraction of the corresponding signals measured for the in-line control blank channel and an averaged baseline determined from three buffer blank injections³¹. Kinetic parameters were determined by data fitting using a 1:1 Langmuir binding model with BIAevaluation software version 4.1 (BIAcore).
To precisely determine kinetic and thermodynamic binding constants of the PSMA-specific Anticalin A3 and its variants, surface plasmon resonance (SPR) real-time analyses was performed on a BIAcore 2000 instrument. […]

The target is the same in test [3]. As to the kind of experiment: SPR (BIAcore 2000), rhPSMA amine-coupled to CM5 chip, Anticalin as analyte. Here is the method: Anticalin binding was detected using StrepTactin/AP conjugate, followed by chromogenic reaction. Absorption was plotted against the Anticalin concentration and data were analyzed by curve fitting. Binding curves for the best performing clones A3 and A3A5 are shown as solid lines. (C-E) SPR sensograms measured for Anticalins A3, A3A5 and A3A5.1 on a BIAcore 2000 instrument. Approximately 500 RU of rhPSMA was immobilized on a CM5 sensor chip by amine coupling. A dilution series from 64 to 2 nM of the purified Anticalin in HBS was applied and the resulting curves were fitted according to a Langmuir 1:1 binding model. (F) Comparison of parameters from real-time SPR analysis for Anticalins investigated in C-E, together with A3A5.7, in a kₒₙ/koff plot.
as §1
To precisely determine kinetic and thermodynamic binding constants of the PSMA-specific Anticalin A3 and its variants, surface plasmon resonance (SPR) real-time analyses was performed on a BIAcore 2000 instrument. To this end, rhPSMA was chemically coupled to the carboxymethyl dextran matrix of a sensorchip using amine chemistry and a concentrations series of each Anticalin was applied.
A general note: Surface plasmon resonance follows binding to a sensor surface in real time, without labels.

Test [4] shares this target. As to the kind of experiment: ELISA, rhPSMA coated on MaxiSorp plate, Anticalin dilution series. An excerpt:
(§2) FIG. 4: Anticalin affinities towards PSMA as determined by ELISA and BIAcore measurements. Binding activities of Anticalins selected from the original naïve library (A) or resulting from subsequent affinity maturation of the A3 variant (B) were compared in an ELISA. A 96-well MaxiSorp plate was coated with rhPSMA (or ovalbumin as a negative control, not shown) and purified Anticalin variants were applied in dilution series. Anticalin binding was detected using StrepTactin/AP conjugate, followed by chromogenic reaction. Absorption was plotted against the Anticalin concentration and data were analyzed by curve fitting. Binding curves for the best performing clones A3 and A3A5 are shown as solid lines. (C-E) SPR sensograms measured for Anticalins A3, A3A5 and A3A5.1 on a BIAcore 2000 instrument. Approximately 500 RU of rhPSMA was immobilized on a CM5 sensor chip by amine coupling. […]
(§3) 50 μL of rhPSMA (5 μg/mL in TBS) was directly adsorbed onto the surface of a MaxiSorp 96-well plate overnight at 4° C. […] The plates were washed three times and bound Anticalins were detected with StrepTactin-AP as described further above. The data were analyzed using Prism 5 software (GraphPad) and absorption values (A) were fitted according to the formula ΔA=Aₘₐₓ·[Lₜₒₜ]/(KD+[Lₜₒₜ]) with the concentration of the applied lipocalin variant [Lₜₒₜ] and the dissociation constant KD.

Test [5] has the same target. As to the kind of experiment: SPR (BIAcore), rhPSMA on chip, Anticalin as analyte. Here is the method: as §1
Several combinations of mutations occurring in the PSMA-specific Lcn2 variants A3A5.1 (carrying 5 new mutations) and A3A5.7 (carrying 4 new mutations) were prepared in order to investigate the relevance of the mutations that were found during affinity maturation for improved PSMA binding with the aim to create a combined Anticalin variant suitable for further protein engineering studies. A first combination, containing solely the mutations located in the loop regions of the Anticalins, was carried out by introducing the following mutations into the sequence of A3A5 (see SEQ ID NO:2): (i) a Y at position 71 as also present in A3A5.1, (ii) an N at position 74 as also present in A3A5.7, (iii) a D at position 103 as also present in A3A5.1. This triple substitution variant, termed A3A5.8, was obtained by gene synthesis, cloned and subsequently expressed (as described in Example 1).

Test [6] shares this target. As to the kind of experiment: ELISA, rhPSMA coated on MaxiSorp plate, Anticalin dilution series, detection by StrepTactin/AP.
Excerpt: as §2, §3

For test [7] the target is unchanged. As to the kind of experiment: SPR (BIAcore), rhPSMA on chip. Here is the method: as §1, with “(BIAcore). […]” for “(BIAcore).”

T1 sequence (Q04609 44-750 limits assumed): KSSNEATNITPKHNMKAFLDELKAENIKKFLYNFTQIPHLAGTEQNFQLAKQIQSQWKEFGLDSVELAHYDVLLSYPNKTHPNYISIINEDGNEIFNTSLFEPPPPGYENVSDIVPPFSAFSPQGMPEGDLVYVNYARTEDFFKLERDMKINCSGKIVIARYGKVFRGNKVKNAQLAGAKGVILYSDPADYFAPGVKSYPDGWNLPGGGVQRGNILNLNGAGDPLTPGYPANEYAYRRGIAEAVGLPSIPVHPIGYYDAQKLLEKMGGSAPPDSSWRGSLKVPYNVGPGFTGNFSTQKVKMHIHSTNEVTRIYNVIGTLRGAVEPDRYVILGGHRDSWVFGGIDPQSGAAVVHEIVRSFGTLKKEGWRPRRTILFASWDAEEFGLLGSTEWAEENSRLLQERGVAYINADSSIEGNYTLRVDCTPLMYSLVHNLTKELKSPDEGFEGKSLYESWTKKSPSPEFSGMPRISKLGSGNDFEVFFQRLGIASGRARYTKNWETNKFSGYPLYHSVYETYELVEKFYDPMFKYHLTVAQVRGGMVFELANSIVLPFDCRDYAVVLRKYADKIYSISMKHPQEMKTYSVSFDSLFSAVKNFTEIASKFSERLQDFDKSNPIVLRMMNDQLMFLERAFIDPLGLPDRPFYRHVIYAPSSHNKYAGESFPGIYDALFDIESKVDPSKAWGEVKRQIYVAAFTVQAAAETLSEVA

B1: Anticalin candidate H5 (designed binder)
chain: QDSTSDLIPAPPLSKVPLQQNFQDNQFHGKWYVVGTAGNWPLREDKDPHKMSATIYELKEDKSYNVTNVQFSSKKCLYFIGTFVPGSQPGEFTLGPIKSAPGQTSGLVRVVSTNYNQHAMVFFKQVIQNREAFIITLYGRTKELTSELKENFIRFSKSLGLPENHIVFPVPIDQCIDG
notes: not shown: C-terminal Strep-tag II
As to B1, the results for the binding result (in test [1]; with ovalbumin) were “binds” and “no binding”, respectively.

B2: Anticalin A3A5 (designed binder)
chain: QDSTSDLIPAPPLSKVPLQQNFQDNQFHGKWYVVGLAGNVILREDKDPYKMSATIYELKEDKSYNVTNVRFYLKKCYYTIATFVPGSQPGEFTLGTIKSGPGKTSGLVRVVSTNYNQHAMVFFKEVQQNREWFIITLYGRTKELTSELKENFIRFSKSLGLPENHIVFPVPIDQCIDG
notes: Differs from A3 by Val for Met at position 40; monomeric, 21 kDa; also called variant A3A5; not shown: C-terminal Strep-tag II
B2: the “fold improvement of KD against A3” value in test [2] was 2 fold. Further, in test [3], the Kd was 2.5 nM, the koff was 0.00017 s⁻¹ and the kon turned out to be 71000 M⁻¹ s⁻¹. Moreover, the Kd in test [4] stood at 2.1 nM.

B3: Anticalin A3A5.7 (designed binder)
chain: B2 chain with K74N, Q88R, N116S, E147K
notes: Soluble form as in SPR; also called variant A3A5.7; not shown: C-terminal Strep-tag II
In test [3], B3 came in with a Kd of 0.54 nM, a koff of 0.00014 s⁻¹ and a kon of 270000 M⁻¹ s⁻¹.

B4: Anticalin A3A5.9 (designed binder)
chain: B2 chain with F71Y, K74N, K103D, E147K
notes: A3A5.8 with K for E at position 147; also called variant A3A5.9; not shown: C-terminal Strep-tag II
Take B4: in test [5], the dissociation constant (Kd) was 0.74 nM, the koff was 0.00016 s⁻¹ and the kon is 220000 M⁻¹ s⁻¹.

B5: Anticalin A3A5.1 (designed binder)
chain: B2 chain with K59N, F71Y, F92Y, K103D, E147K
notes: Soluble form as in SPR; also called variant A3A5.1; not shown: C-terminal Strep-tag II
As to B5, in test [3], the Kd worked out at 0.66 nM, the koff was 0.00014 s⁻¹ and the kon is 210000 M⁻¹ s⁻¹.

B6: Anticalin A3 (designed binder)
chain: B2 chain with V40M
notes: Lcn2-derived lipocalin variant, monomeric, made by periplasmic secretion in E. coli from pNGAL98 with a C-terminal Strep-tag II; also called variant A3; not shown: C-terminal Strep-tag II
With B6, the Kd in test [6] was 6 nM. In test [3], the Kd amounted to 4.8 nM, the koff was 0.00058 s⁻¹ and the kon is 120000 M⁻¹ s⁻¹. Binding in test [4] was put at a Kd of 5.8 nM. For the same molecule, the binding result in the test with ovalbumin is “no binding”.

B7: Anticalin A3A5.8 (designed binder)
chain: B2 chain with F71Y, K74N, K103D
notes: A3A5 with Y at 71, N at 74 and D at 103; also called variant A3A5.8; not shown: C-terminal Strep-tag II
For B7, in test [5], the Kd is 1.4 nM, the koff is 0.00015 s⁻¹ and the kon is 110000 M⁻¹ s⁻¹. Besides, the “fold improvement of KD against A3A5” value in test [7] is ~2 fold.

B8: Anticalin candidate A2 (designed binder)
chain: QDSTSDLIPAPPLSKVPLQQNFQDNQFHGKWYVVGRAGNKPLREDKDPLKMWATIYELKEDKSYNVTIVWFDFKKCWYRISTFVPGSQPGEFTLGRIKSAPGVTSGLVRVVSTNYNQHAMVFFKYVFQNREWFHITLYGRTKELTSELKENFIRFSKSLGLPENHIVFPVPIDQCIDG
notes: as for B1
For the molecule B8, the values for the binding result (in test [1]; in the test with ovalbumin) were “binds” and “no binding”, respectively.
